The record followed here is paper PMC8647176, “Helical filament structure of the DREP3 CIDE domain reveals a unified mechanism of CIDE-domain assembly” (Acta Crystallographica. Section D, Structural Biology, 2021).

This data set deals with the molecule itself. As to the kind of experiment: SEC; Superdex 200 Increase 10/300 GL, 20 mM Tris-HCl pH 7.9, 500 mM NaCl; also series at 1, 5 and 15 mg ml^-1 protein and at four NaCl concentrations.

B1: DREP3 CIDE domain (DNA fragmentation factor-related protein 3, residues Phe112-Asp195) (domain or fragment, Drosophila melanogaster, UniProt Q0E9B7 112-195, looked up)
chain: FAQLDNSKPFKIKDITRNIRKAVVATTLSELRTKVSLKFERAQPAIHLDCDGTEVDDEEYFSTLEPNAELIAVFPGEQWRDPSD
notes: DREP3 (DNA fragmentation factor-related protein 3), Drosophila melanogaster, UniProt Q0E9B7, CIDE domain, residues Phe112-Asp195; Cloned with NdeI and XhoI into pET-21a; The final model of PDB 7v6e holds residues 117-193; also called wild-type DREP3 CIDE domain; WT DREP3 CIDE domain; source: E. coli BL21 (DE3), purified (Ni-NTA, SEC)
Turning to B1, the binding result was “binds”.
